Reference: PMC5929103

Key:
[1] = target: yeast-displayed APPI_(M17G/I18F/F34V) (human); assay: flow cytometry on cells
[2] = target: mesotrypsin (Homo sapiens) (UniProt P35030); details: cited from earlier work
[3] = target: human kallikrein-6, active (human) (UniProt Q92876); assay: enzyme inhibition kinetics

Sequence of UniProt P35030 (P35030 2-304): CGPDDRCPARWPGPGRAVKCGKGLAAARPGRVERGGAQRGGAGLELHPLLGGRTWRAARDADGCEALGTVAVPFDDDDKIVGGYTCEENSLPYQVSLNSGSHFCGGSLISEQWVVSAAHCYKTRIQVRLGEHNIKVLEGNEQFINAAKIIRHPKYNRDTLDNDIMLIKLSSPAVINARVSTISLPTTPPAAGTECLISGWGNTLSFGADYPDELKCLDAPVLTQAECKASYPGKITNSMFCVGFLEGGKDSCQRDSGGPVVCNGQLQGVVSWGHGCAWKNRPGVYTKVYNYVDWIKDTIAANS

Row | Substance | Kd [1] | further results
1 | catalytically inactive human cationic trypsin S195A, labelled with DyLight 650 (enzyme) | 31 nM | –
2 | APPI Kunitz domain (from UniProt P05067) | – | Ki [2]: 140 nM
3 | catalytically inactive human mesotrypsin S195A, labelled with DyLight 488 (enzyme) | 26 nM | –
4 | catalytically inactive human anionic trypsin S195A, labelled with DyLight 650 (enzyme) | 42 nM | –
5 | APPI_(P13W/M17G/I18F/F34V), soluble form (designed binder) | – | Ki [3]: 7.6 nM
